The subject of this data set is MS2 coat protein. Briefly: apparent KD of MS2 coat protein; designed switch direction (-1 OFF switch, 1 ON switch): -1; higher = weaker reporter binding. The procedure, abridged: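 An oligonucleotide input, 200 uM small-molecule ligand, or no input was present during titration of SNAP-549-labelled MS2 coat protein, which was doubled from 0.7 or 1.5 nM to 3 µM. Designed RNA switches had been transcribed on Illumina chips by stalled E. coli RNA polymerase. Apparent KD per design is the median over clusters of curves fitted to normalised cluster fluorescence.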

[1] abbreviates: Eterna round: R95, input ligand: microRNA oligo, concentration not stated.
Where [2] appears, read: input ligand: microRNA oligo, concentration not stated.

Regarding “AUAUUAAUAGUAAGGAUAUGCGUGUGUGUAGUUAUGCAGAAGGUACAUGAGGAUCACCCAUGUAUUAAUGUGUG [LRO-BmodExc4-08-Oppy's Opus] (Eterna round: R97, puzzle: Brourd's mod of Exclusion 4)”, the “apparent KD of MS2 coat protein” value runs as follows: (input ligand: FMN 200 uM) 18 nM; (input ligand: none) 19.7 nM.
For “AUAUUACGAGGAUAUCGUCUCUCCCACAUGAGGAUCACCCAUGUUAUCCAUGUUUCGUUUCGAGAAGGCGUAAGUU [JR_E5_Sub071] (puzzle: Exclusion 5)”, the “apparent KD of MS2 coat protein” value under setting [1] is 65.2 nM.
The same measure, in the same setting: under “AUAUUACGAGGAUAUCGUUUUUUUCACAUGAGGAUCACCCAUGUUAUUUAUGUUUCGUUUCGAGAAGGCGUAAGUU [JR_E5_Sub069] (puzzle: Exclusion 5)” stands 22.3 nM.
Take “AUAUUGAUAGUAAGGAUAUGCGUGUGUGUAGUGAUGCAGAAGGUACAUGAGGAUCACCCAUGUAUUAAUGUGUG [LRO-BmodExc4-10-Oppy's Opus] (Eterna round: R97, puzzle: Brourd's mod of Exclusion 4)”: the “apparent KD of MS2 coat protein” value reads like this: (input ligand: FMN 200 uM) 20.5 nM; (input ligand: none) 16.7 nM.
In the case of “AUAUUUAAUAUAGGAUAUAGGAAGAAUGAUGAACUAGAAGGAUAACAUACAUGAGGAUCACCCAUGUCCCAUGUGAUCACCCAU [Seems to work in some way] (Eterna round: R96, puzzle: Exclusion NG 1)”, under setting [2], the “apparent KD of MS2 coat protein” value is 257 nM.
Take “AUCAAAGAAUAUCAUAAGCACAUGAGGAUCACCCAUGUGAUGGGUGAGAGCCUGAAAGCCACUUCUGCUCGUCUUAU [Cac Sensor turn off var1 sub9] (Eterna round: R97, puzzle: Sensor, turn-off variant 1)”: the “apparent KD of MS2 coat protein” value is 969 nM (input ligand: FMN 200 uM) and 883 nM (input ligand: none).
As for “AUCAGCUCGUCAGGAUAUGAACAUGAGGAUCACCCAUGUAAGAUCAAGCUGCUUCGGCAGCAAGUUCAGAAGGGACGAGCUGAU [ENG2/10-B3] (Eterna round: R96, puzzle: Exclusion NG 2)”, the “apparent KD of MS2 coat protein” value was determined as 169 nM (input ligand: FMN 200 uM), 93.3 nM under setting [2] and 112 nM (input ligand: none).
“AUCAUGGGAGGAUAUCACCUAUGUUACAUGAGGAUCACCCAUGUGAGACUAAAUGACUGCUGAGAAGGCUCAACGC [Eternabot (Original) Solution 25] (Eterna round: R97, puzzle: Exclusion 5)”: the “apparent KD of MS2 coat protein” value is, setting by setting: (input ligand: FMN 200 uM) 205 nM; (input ligand: none) 234 nM.
As to “AUCCUACAUGAGGAUCACCCAUGUCAGGAUAUCCAAGAAAUCUGGCCGUAUCGGCCAGGGAGAAGGGACAUGGU [jl-ex1-4.63 ViennaUCT mod] (Eterna round: R97, puzzle: Exclusion 1)”, the “apparent KD of MS2 coat protein” value worked out at 85.3 nM (input ligand: FMN 200 uM) and 49 nM (input ligand: none).
The corresponding values for “AUCCUUAACAAGGAUAUCGGGCGGGAAAUUGUUUGAGAAGGUGUAACAUGAGGAUCACCCAUGUGGCGCGUGGA [-20.8, -18.9 kcal, A 28%] (Eterna round: R97, puzzle: Exclusion 6)” are 54.6 nM and 56.6 nM.
Consider “AUCUUGUAAGGAUAUCUGACAAGUGACGAAAGUCACAGUUCAGAGAAGGUACAUGAGGAUCACCCAUGUAGAAC [Ex4-3: 41] (puzzle: Exclusion 4)”, for which the “apparent KD of MS2 coat protein” value under setting [1] came out at 15.9 nM.
On to “AUGACAGGACAUGAGGAUCACCCAUGUACACGACCAAUGACCGAGGAUAUCGAUUGCAUGCAGGUCGAGAAGGCGGAGUAUCCA [Eternabot solution 3] (Eterna round: R96, puzzle: Exclusion NG 3)”, for which the “apparent KD of MS2 coat protein” value is 18.2 nM (input ligand: FMN 200 uM), 30.9 nM under setting [2] and 28.1 nM (input ligand: none).
For “AUGACCUAAGGAUAUACAUGAGGAUCACCCAUGUCAGGUAAGCCUGUCCGCGGUGCAUGUAGAAGGUAGCUACC [EX3 A.27] (Eterna round: R97, puzzle: Exclusion 3)”, the “apparent KD of MS2 coat protein” value runs as follows: (input ligand: FMN 200 uM) 122 nM; (input ligand: none) 116 nM.
For “AUGAGCAGACGGAGAUCCAACAUGAGGAUCACCCAUGUCUCAAAAGCUUUUUGCUCAUCUUAUUGUACCUUGGUGCG [Mat - Sensor v3 - turn-off var 1 - JL Mod - D18] (puzzle: Sensor v3, turn-off variant 1)”, the “apparent KD of MS2 coat protein” value (Eterna round: R95, input ligand: FMN 200 uM) is 161 nM; the “apparent KD of MS2 coat protein” value under setting [1] stood at 9.21 nM; the “apparent KD of MS2 coat protein” value (Eterna round: R95, input ligand: none) is 170 nM.
For the sequence “AUGAUGUUAGGAUAUCAUUGCCGGGUUUGAAAACACGGGAUUGAGAAGGAACAUGAGGAUCACCCAUGUGCCUC [EX4 C.9] (Eterna round: R97, puzzle: Exclusion 4)”, the “apparent KD of MS2 coat protein” value reads like this: (input ligand: FMN 200 uM) 118 nM; (input ligand: none) 27.5 nM.
The corresponding values for “AUGCCCUGAGGAUAUCUCAUCCCGCACAUGAGGAUCACCCAUGUUCUUCUCCGGGUUUCGAGAGAAGGCAGGCCUA [Armus4] (Eterna round: R97, puzzle: Exclusion 5)” are 79.4 nM and 249 nM.
Taken in the same sequence, the figures for “AUGCCGCUAGGAUAUUGCAGCUGAUACAUGAGGAUCACCCAUGUGACUCGCUGGGUAGUGUAAGAAGGAGUGUGCU [Eternabot (L2) Solution 27] (Eterna round: R97, puzzle: Exclusion 5)” were 21.3 nM and 24 nM.
The corresponding values for “AUGGAAGAGCAAUAGCUCUACAUGAGGAUCACCCAUGUAGGAAAUACUGGGUACAGCGGGCUUUUUGCUCGGCUUAU [Alacar Attempt 4] (Eterna round: R97, puzzle: Sensor, turn-off variant 1)” are 364 nM and 412 nM.
Consider “AUGGGUCCUCACGGAGCUACAUGAGGAUCACCCAUGUGGAUUGAGGAUAUCGUAAGCCGACGGCACGAGAAGGCAGUUUACUGU [Ex NG3 #97] (Eterna round: R96, puzzle: Exclusion NG 3)”, for which the “apparent KD of MS2 coat protein” value (input ligand: FMN 200 uM) worked out at 47.5 nM, the “apparent KD of MS2 coat protein” value under setting [2] came to 22.8 nM and the “apparent KD of MS2 coat protein” value (input ligand: none) came to 23.5 nM.
Taken in the same sequence, the figures for “AUGGGUCCUCUCGGAGCUACAUGAGGAUCACCCAUGUGUAUUGAGGAUAUCCACUGCUCAGGACUGGAGAAGGCAGUGUACUGU [Ex NG3 #88] (Eterna round: R96, puzzle: Exclusion NG 3)” were 56.2 nM, 33.5 nM and 59.9 nM.
For the sequence “AUGUUACAUGAGGAUCACCCAUGUCAGGAUAUCUAUCAUAGCAUAGAAAUAUGCGGGUAGAGAAGGGACUAUCC [ChP Ext 10-04-2015 #5] (puzzle: Exclusion 1)”, the “apparent KD of MS2 coat protein” value under setting [1] is 14.7 nM.
Regarding “AUUACAUGAGGAUAUACAUGAGGAUCACCCAUGUAAAUAGCAGUGGUAGUCAACUCGAGUAGAAGGCGUAACGU [Eternabot (L1) Solution 51] (Eterna round: R97, puzzle: Exclusion 3)”, the “apparent KD of MS2 coat protein” value (input ligand: FMN 200 uM) amounted to 67.8 nM and the “apparent KD of MS2 coat protein” value (input ligand: none) is 58.7 nM.
With “AUUAUACAUGUAGGAUAUCUGCACGUUUAGUGCAGAGAAGGACAUGAGGAUCACCCAUGUAGAUCAAUAAUAAUUAAUUUAAUU [ENG1/6-B2] (Eterna round: R96, puzzle: Exclusion NG 1)”, the “apparent KD of MS2 coat protein” value runs as follows: (input ligand: FMN 200 uM) 889 nM; under setting [2], 203 nM; (input ligand: none) 202 nM.
For the sequence “AUUAUAUAGUCAGGAUAUAGAAUAUUAUUUUAACAUGAGGAUCACCCAUGUAACCUUAUGUGUAGCUAGAAGGGACAUUUAUUA [Title] (Eterna round: R96, puzzle: Exclusion NG 2)”, the “apparent KD of MS2 coat protein” value under setting [2] was 76.6 nM.

For the origin of these results see the supplement of paper PMC9170038.
